Data: US20200392225A1 (Novartis, published 2020)

T1: human NPR1 expressed on CHO-K1 cells (human, UniProt P16066 33-1061)
T1 construct: also called hNPR1 CHO K1; human NPR1 expressing CHO-K1 cells
T1 sequence: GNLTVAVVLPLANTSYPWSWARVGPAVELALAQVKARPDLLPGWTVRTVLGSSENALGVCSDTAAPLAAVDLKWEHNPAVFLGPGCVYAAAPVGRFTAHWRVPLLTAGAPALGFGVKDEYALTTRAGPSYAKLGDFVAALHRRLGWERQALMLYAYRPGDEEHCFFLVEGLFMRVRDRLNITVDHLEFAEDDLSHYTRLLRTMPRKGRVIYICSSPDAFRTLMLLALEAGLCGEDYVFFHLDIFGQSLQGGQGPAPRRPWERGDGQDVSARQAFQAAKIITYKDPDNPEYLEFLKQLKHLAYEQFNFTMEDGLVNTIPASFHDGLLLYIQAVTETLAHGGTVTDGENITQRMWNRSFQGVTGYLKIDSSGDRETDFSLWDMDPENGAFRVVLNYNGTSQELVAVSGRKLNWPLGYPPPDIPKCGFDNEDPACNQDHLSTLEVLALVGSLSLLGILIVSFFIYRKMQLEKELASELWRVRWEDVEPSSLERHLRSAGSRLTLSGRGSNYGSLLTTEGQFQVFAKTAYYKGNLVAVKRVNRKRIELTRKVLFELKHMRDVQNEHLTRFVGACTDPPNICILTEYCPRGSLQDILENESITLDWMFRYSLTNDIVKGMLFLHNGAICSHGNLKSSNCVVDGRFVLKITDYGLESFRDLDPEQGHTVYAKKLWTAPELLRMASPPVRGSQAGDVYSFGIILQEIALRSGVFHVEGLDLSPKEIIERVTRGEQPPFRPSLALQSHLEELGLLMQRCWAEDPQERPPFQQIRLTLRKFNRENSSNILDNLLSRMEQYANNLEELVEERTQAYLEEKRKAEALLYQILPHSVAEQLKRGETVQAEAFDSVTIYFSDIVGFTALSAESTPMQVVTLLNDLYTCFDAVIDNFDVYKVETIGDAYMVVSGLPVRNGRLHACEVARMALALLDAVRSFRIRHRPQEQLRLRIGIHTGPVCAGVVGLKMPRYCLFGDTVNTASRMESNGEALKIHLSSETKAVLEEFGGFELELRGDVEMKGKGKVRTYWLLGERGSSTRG

T2: constitutively active human NPR1 mutant (W74R), recombinant antigen (human, UniProt P16066 33-473)
T2 construct: also called W74R hNPR1
T2 sequence: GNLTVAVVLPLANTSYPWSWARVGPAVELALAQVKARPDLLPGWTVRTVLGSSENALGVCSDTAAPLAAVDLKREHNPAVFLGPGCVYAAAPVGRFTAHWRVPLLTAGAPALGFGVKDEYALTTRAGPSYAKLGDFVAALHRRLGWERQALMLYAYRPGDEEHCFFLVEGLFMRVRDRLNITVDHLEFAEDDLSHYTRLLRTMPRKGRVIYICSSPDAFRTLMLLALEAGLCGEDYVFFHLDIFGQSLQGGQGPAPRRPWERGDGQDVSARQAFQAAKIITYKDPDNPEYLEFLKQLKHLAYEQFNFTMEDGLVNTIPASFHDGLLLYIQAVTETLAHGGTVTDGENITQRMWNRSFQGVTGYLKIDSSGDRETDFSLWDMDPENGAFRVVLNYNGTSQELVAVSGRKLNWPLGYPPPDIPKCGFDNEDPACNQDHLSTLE

T3: human NPR1 (Natriuretic Peptide Receptor 1), recombinant antigen (human, UniProt P16066 33-473)
T3 construct: also called hNPR1; NPR1-hFc
T3 sequence: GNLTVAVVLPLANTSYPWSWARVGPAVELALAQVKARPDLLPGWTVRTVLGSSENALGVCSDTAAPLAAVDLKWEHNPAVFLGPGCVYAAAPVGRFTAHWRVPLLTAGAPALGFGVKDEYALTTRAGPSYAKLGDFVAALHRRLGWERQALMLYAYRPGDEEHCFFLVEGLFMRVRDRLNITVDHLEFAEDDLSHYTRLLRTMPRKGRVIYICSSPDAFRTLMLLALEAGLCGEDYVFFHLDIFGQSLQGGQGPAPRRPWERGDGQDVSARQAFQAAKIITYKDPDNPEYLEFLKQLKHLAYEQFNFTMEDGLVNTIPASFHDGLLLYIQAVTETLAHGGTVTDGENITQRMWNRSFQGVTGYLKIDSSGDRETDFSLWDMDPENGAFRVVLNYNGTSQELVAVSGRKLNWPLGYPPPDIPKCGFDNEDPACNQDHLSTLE

T4: human NPR3 (counter target) (human, UniProt P17342 27-481, limits assumed)
T4 construct: hNPR3-hFc is named in the pannings; also called hNPR3; hNPR3-hFc
T4 sequence (looked up): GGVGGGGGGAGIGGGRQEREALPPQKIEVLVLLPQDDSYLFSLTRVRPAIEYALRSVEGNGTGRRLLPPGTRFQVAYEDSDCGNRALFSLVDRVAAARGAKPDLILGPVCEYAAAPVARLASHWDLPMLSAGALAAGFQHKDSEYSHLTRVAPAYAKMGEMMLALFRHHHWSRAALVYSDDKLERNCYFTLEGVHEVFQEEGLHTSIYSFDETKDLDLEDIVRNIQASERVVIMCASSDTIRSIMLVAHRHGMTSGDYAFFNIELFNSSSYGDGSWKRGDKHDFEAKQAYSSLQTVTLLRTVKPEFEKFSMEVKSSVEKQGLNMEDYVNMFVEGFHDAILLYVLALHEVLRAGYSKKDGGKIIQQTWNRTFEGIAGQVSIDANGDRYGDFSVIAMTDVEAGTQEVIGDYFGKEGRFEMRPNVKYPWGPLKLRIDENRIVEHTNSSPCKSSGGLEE

T5: rat NPR1, recombinant antigen (rat, UniProt P18910 29-469)
T5 construct: NCBI NP_036745.1 printed; also called rNPR1
T5 sequence: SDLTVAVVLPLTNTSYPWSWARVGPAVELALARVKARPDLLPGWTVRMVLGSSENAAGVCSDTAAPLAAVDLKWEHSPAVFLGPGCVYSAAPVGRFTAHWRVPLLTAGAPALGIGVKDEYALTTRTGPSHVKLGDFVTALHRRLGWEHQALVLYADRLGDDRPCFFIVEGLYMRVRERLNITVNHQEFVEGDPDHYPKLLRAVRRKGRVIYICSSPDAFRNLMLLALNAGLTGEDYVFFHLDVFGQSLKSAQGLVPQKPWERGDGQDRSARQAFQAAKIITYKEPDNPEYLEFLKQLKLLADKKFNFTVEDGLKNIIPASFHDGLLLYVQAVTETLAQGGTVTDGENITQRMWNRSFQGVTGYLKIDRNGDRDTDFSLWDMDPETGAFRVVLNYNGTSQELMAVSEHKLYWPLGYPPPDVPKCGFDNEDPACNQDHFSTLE

T6: human NPR1 expressed on CHO-K1 cells in the presence of ANP (human, UniProt P01160 124-151)
T6 construct: also called hNPR1 CHO K1 + 100 nM ANP
T6 sequence: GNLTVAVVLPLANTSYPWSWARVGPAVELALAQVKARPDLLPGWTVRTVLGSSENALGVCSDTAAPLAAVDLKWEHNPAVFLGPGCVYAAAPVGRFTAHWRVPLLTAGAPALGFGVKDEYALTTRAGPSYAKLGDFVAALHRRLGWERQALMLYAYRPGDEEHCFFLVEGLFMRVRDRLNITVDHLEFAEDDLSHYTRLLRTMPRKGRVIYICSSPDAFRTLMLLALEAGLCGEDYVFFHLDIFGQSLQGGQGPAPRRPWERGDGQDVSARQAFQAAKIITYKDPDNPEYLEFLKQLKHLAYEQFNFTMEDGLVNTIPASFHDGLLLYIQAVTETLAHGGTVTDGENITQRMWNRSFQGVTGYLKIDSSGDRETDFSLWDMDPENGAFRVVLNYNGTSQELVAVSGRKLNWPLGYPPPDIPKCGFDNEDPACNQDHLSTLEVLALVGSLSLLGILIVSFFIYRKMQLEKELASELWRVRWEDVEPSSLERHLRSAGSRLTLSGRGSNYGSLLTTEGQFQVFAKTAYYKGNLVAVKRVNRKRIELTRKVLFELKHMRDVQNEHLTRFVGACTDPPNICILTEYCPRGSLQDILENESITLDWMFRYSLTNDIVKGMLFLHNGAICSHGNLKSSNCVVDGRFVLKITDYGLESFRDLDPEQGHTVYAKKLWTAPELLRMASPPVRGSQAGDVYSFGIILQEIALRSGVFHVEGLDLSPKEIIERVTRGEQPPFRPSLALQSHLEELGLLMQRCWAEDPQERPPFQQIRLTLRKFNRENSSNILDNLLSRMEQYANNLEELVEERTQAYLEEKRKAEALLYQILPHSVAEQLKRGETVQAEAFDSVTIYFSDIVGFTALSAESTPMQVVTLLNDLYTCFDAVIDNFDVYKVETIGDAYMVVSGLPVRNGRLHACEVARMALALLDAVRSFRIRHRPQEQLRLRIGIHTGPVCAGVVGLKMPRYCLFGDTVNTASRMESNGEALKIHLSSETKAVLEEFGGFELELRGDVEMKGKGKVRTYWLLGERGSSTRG
T6 sequence (peptide): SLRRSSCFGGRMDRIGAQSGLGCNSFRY

T7: human NPR1-ANP complex (human, UniProt P01160 124-151, limits assumed)
T7 construct: Receptor antigen measured in the presence of ANP; also called hNPR1 + ANP; hNPR1-ANP-complex
T7 sequence: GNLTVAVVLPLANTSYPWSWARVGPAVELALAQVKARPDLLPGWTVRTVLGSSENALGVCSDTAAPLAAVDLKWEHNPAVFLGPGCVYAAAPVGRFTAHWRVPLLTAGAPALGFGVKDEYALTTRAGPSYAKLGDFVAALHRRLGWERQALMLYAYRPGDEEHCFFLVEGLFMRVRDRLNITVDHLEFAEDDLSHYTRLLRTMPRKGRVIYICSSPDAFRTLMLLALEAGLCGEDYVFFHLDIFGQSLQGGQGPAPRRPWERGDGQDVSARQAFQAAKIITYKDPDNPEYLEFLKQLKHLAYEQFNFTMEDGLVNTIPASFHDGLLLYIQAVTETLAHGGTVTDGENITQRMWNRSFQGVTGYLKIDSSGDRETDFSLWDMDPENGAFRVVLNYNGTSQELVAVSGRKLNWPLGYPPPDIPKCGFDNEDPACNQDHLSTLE
T7 sequence (peptide): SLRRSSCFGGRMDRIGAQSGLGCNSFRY


Columns and labels:
[1] = target: T1, human NPR1 expressed on CHO-K1 cells; experiment: flow cytometry, 1 uM IgG
[2] = target: T2, constitutively active human NPR1 mutant …; experiment: ELISA, IgG titrated on the antigen without ANP [cont.]
[3] = target: T3, human NPR1 (Natriuretic Peptide …); experiment: ELISA, 1 uM IgG
[4] = target: T4, human NPR3 (counter target); experiment: ELISA, 1 uM IgG
[5] = target: T5, rat NPR1, recombinant antigen; experiment: ELISA, 1 uM IgG
[6] = target: T2, constitutively active human NPR1 mutant …; experiment: ELISA, 1 uM IgG
[7] = target: T6, human NPR1 expressed on CHO-K1 cells in …; experiment: flow cytometry, 1 uM IgG, +100 nM ANP
[8] = target: T1, human NPR1 expressed on CHO-K1 cells; experiment: cell-based or functional assay
[9] = target: T7, human NPR1-ANP complex; experiment: ELISA, 1 uM IgG, +100 nM ANP
[10] = target: T8, rat NPR1-ANP complex (rat); experiment: ELISA, 1 uM IgG, +100 nM ANP
T8 construct: Rat receptor antigen measured in the presence of ANP; also called rNPR1 + ANP; rNPR1-ANP-complex

[11] = target: T2, constitutively active human NPR1 mutant …; experiment: ELISA, IgG titrated on the antigen without ANP

Binder	flow cytometry S/BG [1] [S/BG]	EC50 (read off the curve) [2] [nM]	ELISA IgG binding at 1 uM IgG (unit not given) [3]	ELISA IgG binding at 1 uM IgG (unit not given) [4]	ELISA IgG binding at 1 uM IgG (unit not given) [5]	ELISA IgG binding at 1 uM IgG (unit not given) [6]	flow cytometry S/BG [7] [S/BG]	cGMP conc [nM] at 1 uM IgG, +0.075 nM ANP [8] [nM]	cGMP conc [nM] at 1 uM IgG, without ANP [8] [nM]	ELISA IgG binding at 1 uM IgG (unit not given) [9]	ELISA IgG binding at 1 uM IgG (unit not given) [10]	binding result [11]
YY07 IgG (YY07_LALA) (antibody, V domains shown) VH: EVQLVQSGAEVKKPGESLKISCKGSGYSFTSYWISWVRQMPGKGLEWMGIIYPGTSYTRYSPSFQGQVTISADKSISTAYLQWSSLKASDTAMYYCARGSLPGLLGFDHWGQGTLVTVSS VL: QSVLTQPPSVSGAPGQRVTISCTGSSSNIGAGYDVHWYQQLPGTAPKLLIYGNSNRPNGVPDRFSGSKSGTSASLAITGLQAEDEADYYCQSYDSPTSSSVFGGGTKLTVLG	8	~2	68	6	3	53	44	9	4	24	3	
WW01 IgG (WW01_LALA) (antibody, V domains shown) VH: QVQLLESGGGLVQPGGSLRLSCAASGFTFNTHYIHWVRQAPGKGLEWVSSISGSGSNTYYADSVKGRFTISRDNSKNTLYLQMNSLRAEDTAVYYCARERGYVYYHMFDPWGQGTLVTVSS VL: DIVLTQSPATLSLSPGERATLSCRASQSITRNYLAWYQQKPGQAPRLLIYGASSRATGIPARFSGSGSGTDFTLTISSLEPEDFAVYYCQQHSMYPRTFGQGTKVEIKR												no binding (tested: 1000 nM)
